Test results from IntAct's records for PubMed 21673656.

B1: Flagellar motor switch protein FliM (Escherichia coli (strain K12)), P06974 (parent)
chain: MGDSILSQAEIDALLNGDSEVKDEPTASVSGESDIRPYDPNTQRRVVRERLQALEIINERFARHFRMGLFNLLRRSPDITVGAIRIQPYHEFARNLPVPTNLNLIHLKPLRGTGLVVFSPSLVFIAVDNLFGGDGRFPTKVEGREFTHTEQRVINRMLKLALEGYSDAWKAINPLEVEYVRSEMQVKFTNITTSPNDIVVNTPFHVEIGNLTGEFNICLPFSMIEPLRELLVNPPLENSRNEDQNWRDNLVRQVQHSQLELVANFADISLRLSQILKLNPGDVLPIEKPDRIIAHVDGVPVLTSQYGTLNGQYALRIEHLINPILNSLNEEQPK
partner: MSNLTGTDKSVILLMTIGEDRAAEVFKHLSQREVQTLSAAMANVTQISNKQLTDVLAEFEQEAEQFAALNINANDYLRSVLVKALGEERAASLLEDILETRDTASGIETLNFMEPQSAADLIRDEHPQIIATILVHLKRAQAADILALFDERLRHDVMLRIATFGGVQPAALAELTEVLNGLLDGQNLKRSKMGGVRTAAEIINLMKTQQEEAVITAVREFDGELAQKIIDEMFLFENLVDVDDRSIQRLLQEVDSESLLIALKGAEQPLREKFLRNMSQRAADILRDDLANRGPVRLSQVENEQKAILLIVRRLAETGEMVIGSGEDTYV
B2: Flagellar motor switch protein FliG (Escherichia coli (strain K12)), P0ABZ1 (parent)
chain: B1 partner
partner: B1 chain

Variants of: B1
Settings: with flig_ecoli fliG

| effect of a mutation on the interaction | Variant |
| --- | --- |
| decreasing interaction | V153D |

Variants of: B1
Settings: with flig_ecoli fliG
Remark: another data set of the same source

| effect of a mutation on the interaction | Variant |
| --- | --- |
| increasing interaction | V153C |

Variants of: B1
Settings: with flig_ecoli fliG, P0ABZ1

| effect of a mutation on the interaction | Variant |
| --- | --- |
| increasing interaction | T149C |

Variants of: B1
Settings: with flig_ecoli fliG
Remark: another data set of the same source

| effect of a mutation on the interaction | Variant |
| --- | --- |
| decreasing interaction | T149D |

Variants of: B1
Settings: with flig_ecoli fliG
Remark: another data set of the same source

| effect of a mutation on the interaction | Variant |
| --- | --- |
| disrupting interaction | F131D |

Variants of: B1
Settings: with flig_ecoli fliG, P0ABZ1
Remark: another data set of the same source

| effect of a mutation on the interaction | Variant |
| --- | --- |
| increasing interaction | F131C |

Variants of: B1
Settings: with flig_ecoli fliG
Remark: another data set of the same source

| effect of a mutation on the interaction | Variant |
| --- | --- |
| disrupting interaction | G133W |

Variants of: B1
Settings: with flig_ecoli fliG
Remark: another data set of the same source

| effect of a mutation on the interaction | Variant |
| --- | --- |
| decreasing interaction | L160E |

Variants of: B1
Settings: with flig_ecoli fliG
Remark: another data set of the same source

| effect of a mutation on the interaction | Variant |
| --- | --- |
| disrupting interaction | R156D |

Variants of: B2
Settings: with flim_ecoli fliM

| effect of a mutation on the interaction | Variant |
| --- | --- |
| increasing interaction | L225C |

Variants of: B2
Settings: with flim_ecoli fliM
Remark: another data set of the same source

| effect of a mutation on the interaction | Variant |
| --- | --- |
| disrupting interaction | L225W |

Variants of: B2
Settings: with flim_ecoli fliM, P06974

| effect of a mutation on the interaction | Variant |
| --- | --- |
| increasing interaction | M206C |

Variants of: B2
Settings: with flim_ecoli fliM, P06974
Remark: another data set of the same source

| effect of a mutation on the interaction | Variant |
| --- | --- |
| increasing interaction | I129C |

Variants of: B2
Settings: with flim_ecoli fliM
Remark: another data set of the same source

| effect of a mutation on the interaction | Variant |
| --- | --- |
| disrupting interaction | I202W |
